From patent US20250163168

Assay: AC-SINS self-interaction assay; the antibody against itself (N = 2)

Substance	AC-SINS (wavelength of maximum absorbance relative to blank, nm)
positive control (polyreactivity assays)	23.5 nm
negative control (polyreactivity assays)	0 nm
